Assay results from FireProtDB.
“And” between values parts separate entries of the source, which are not always exact repeats. Identical values can stand only once.

Settings: whole UniProt chain shown
[1] = Gallus gallus, pH 7, 25 °C, GdnHCl, Fluorescence, Phosphate 10 mM, NaCl 50 mM
[2] = Escherichia coli (strain K12), pH 7.4, Thermal, DSC, phosphate 5 mM, reversible: yes
[3] = Escherichia phage lambda, pH 5.6, 37 °C, Urea, CD, Acetic acid(deuterated) 10 mM, NaCl 100 mM, reversible: yes
[4] = Escherichia phage lambda, pH 6.6, 20 °C, GdnHCl, CD, Potassium phosphate 50 mM, KCl 100 mM, reversible: yes
[5] = Escherichia phage lambda, pH 7, 5 °C, GdnHCl, CD, Potassium phosphate 50 mM, KCl 100 mM, reversible: yes (70-100%)
[6] = Escherichia phage lambda, pH 7, 25 °C, GdnHCl, CD, Potassium phosphate 50 mM, KCl 100 mM, reversible: yes (70-100%)
[7] = Escherichia phage lambda, pH 7, Thermal, DSC, Bis-Tris 10 mM, KCl 200 mM, reversible: yes (88%)
[8] = Escherichia phage lambda, pH 7, Thermal, DSC, Bis-Tris 10 mM, KCl 200 mM, reversible: yes
[9] = Escherichia phage lambda, pH 8, Thermal, CD, KD2PO4 20 mM, NaCl 100 mM, reversible: yes (>90%)
[10] = Escherichia phage lambda, pH 8, Thermal, DSC, Potassium phosphate 10 mM, KCl 200 mM, reversible: no
[11] = Escherichia phage lambda, pH 8, Thermal, DSC, Potassium phosphate 10 mM, KCl 200 mM, reversible: yes (95%)

B1: Tetracycline repressor protein class D wild type, P0ACT4 (protein)
chain: MARLNRESVIDAALELLNETGIDGLTTRKLAQKLGIEQPTLYWHVKNKRALLDALAVEILARHHDYSLPAAGESWQSFLRNNAMSFRRALLRYRDGAKVHLGTRPDEKQYDTVETQLRFMTENGFSLRDGLYAISAVSHFTLGAVLEQQEHTAALTDRPAAPDENLPPLLREALQIMDSDDGEQAFLHGLESLIRGFEVQLTALLQIVGGDKLIIPFC
In the case of B1, the “denaturant midpoint (higher = more stable)” value (from here on “denaturant midpoint”) (Escherichia coli, pH 7.5, 22 °C, Urea, CD, Tris-HCl 50 mM, NaCl 150 mM, reversible: yes(96%)) is reported as 4.7 M.

B2: Riboflavin-binding protein wild type, P02752 (protein)
chain: MLRFAITLFAVITSSTCQQYGCLEGDTHKANPSPEPNMHECTLYSESSCCYANFTEQLAHSPIIKVSNSYWNRCGQLSKSCEDFTKKIECFYRCSPHAARWIDPRYTAAIQSVPLCQSFCDDWYEACKDDSICAHNWLTDWERDESGENHCKSKCVPYSEMYANGTDMCQSMWGESFKVSESSCLCLQMNKKDMVAIKHLLSESSEESSSMSSSEEHACQKKLLKFEALQQEEGEERR
B2 gave a denaturant m value [1] of 4.14 kcal/mol/M and an unfolding free energy [1] of 2.78 kcal/mol.

B3: L-arabinose-binding periplasmic protein wild type, P02924 (protein)
chain: MHKFTKALAAIGLAAVMSQSAMAENLKLGFLVKQPEEPWFQTEWKFADKAGKDLGFEVIKIAVPDGEKTLNAIDSLAASGAKGFVICTPDPKLGSAIVAKARGYDMKVIAVDDQFVNAKGKPMDTVPLVMMAATKIGERQGQELYKEMQKRGWDVKESAVMAITANELDTARRRTTGSMDALKAAGFPEKQIYQVPTKSNDIPGAFDAANSMLVQHPEVKHWLIVGMNDSTVLGGVRATEGQGFKAADIIGIGINGVDAVSELSKAQATGFYGSLLPSPDVHGYKSSEMLYNWVAKDVEPPKFTEVTDVVLITRDNFKEELEKKGLGGK
For B3, the Tm [2] was 53.6 °C, the “heat capacity change of unfolding” value [2] was 3.16 kcal/mol/K and the “unfolding enthalpy (calorimetric)” value [2] was 152 kcal/mol.

B4: Lactose operon repressor wild type, P03023 (protein)
chain: MKPVTLYDVAEYAGVSYQTVSRVVNQASHVSAKTREKVEAAMAELNYIPNRVAQQLAGKQSLLIGVATSSLALHAPSQIVAAIKSRADQLGASVVVSMVERSGVEACKAAVHNLLAQRVSGLIINYPLDDQDAIAVEAACTNVPALFLDVSDQTPINSIIFSHEDGTRLGVEHLVALGHQQIALLAGPLSSVSARLRLAGWHKYLTRNQIQPIAEREGDWSAMSGFQQTMQMLNEGIVPTAMLVANDQMALGAMRAITESGLRVGADISVVGYDDTEDSSCYIPPLTTIKQDFRLLGQTSVDRLLQLSQGQAVKGNQLLPVSLVKRKTTLAPNTQTASPRALADSLMQLARQVSRLESGQ
B4 gave a Tm (Escherichia coli (strain K12), pH 7.4, Thermal, CD, phosphate 5 mM, reversible: no) of 53 °C.

B5: Repressor protein cI wild type, P03034 (protein)
chain: MSTKKKPLTQEQLEDARRLKAIYEKKKNELGLSQESVADKMGMGQSGVGALFNGINALNAYNAALLAKILKVSVEEFSPSIAREIYEMYEAVSMQPSLRSEYEYPVFSHVQAGMFSPELRTFTKGDAERWVSTTKKASDSAFWLEVEGNSMTAPTGSKPSFPDGMLILVDPEQAVEPGDFCIARLGGDEFTFKKLIRDSGQVFLQPLNPQYPMIPCNESCSVVGKVIASQWPEETFG
B5 showed a denaturant m value [3] of 1.23 kcal/mol/M, an unfolding free energy [3] of 3.27 kcal/mol and a denaturant m value [4] of 2.3 kcal/mol/M. The unfolding free energy [4] was 5.2 kcal/mol, the denaturant m value [5] was 2.5 kcal/mol/M and the “denaturant midpoint” value [5] was 2.52 M. The unfolding free energy [5] was 6 kcal/mol, the denaturant m value [6] was 2.4 kcal/mol/M and the “denaturant midpoint” value [6] was 2.03 M. The unfolding free energy [6] was 4.8 kcal/mol, the unfolding free energy (Escherichia phage lambda, pH 7, 25 °C, Urea, CD, Sodium phosphate 20 mM, NaCl 100 mM, reversible: Yes) was 2.4 kcal/mol and the Tm (Escherichia phage lambda, pH 7, Thermal, CD, Potassium phosphate 10 mM, KCl 100 mM) was 54 °C. For the same protein, the Tm (Escherichia phage lambda, pH 7, Thermal, CD, Potassium phosphate 50 mM, KCl 100 mM, reversible: yes (60-75%)) was 55 °C, the Tm (Escherichia phage lambda, pH 7, Thermal, CD, Potassium phosphate 50 mM, KCl 100 mM, reversible: yes (70-100%)) was 55.7 °C and the Tm (Escherichia phage lambda, pH 7, Thermal, CD, Potassium phosphate 50 mM, KCl 100 mM) was 57 °C. For the same protein, the Tm [7] was 73.3 °C, the “unfolding enthalpy (calorimetric)” value [7] was 82.4 kcal/mol and the “unfolding enthalpy (van 't Hoff)” value [7] was 348 kcal/mol. The Tm [8] was 50.7 °C, the “unfolding enthalpy (calorimetric)” value [8] was 50.9 kcal/mol and the “unfolding enthalpy (van 't Hoff)” value [8] was 332 kcal/mol. The unfolding free energy (Escherichia phage lambda, pH 7.5, 22 °C, Urea, CD, Potassium phosphate 10 mM, KCl 50 mM) was 0 kcal/mol, the Tm (Escherichia phage lambda, pH 7.5, Thermal, CD, Potassium phosphate 10 mM, KCl 50 mM) was 49 °C and the unfolding free energy (Escherichia phage lambda, pH 8, 13 °C, Urea, CD, KD2PO4 20 mM, NaCl 100 mM, reversible: yes (>90%)) was 4.6 kcal/mol. The unfolding free energy (Escherichia phage lambda, pH 8, 25 °C, Urea, CD, KD2PO4 20 mM, NaCl 100 mM, reversible: yes (>90%)) was 4.3 kcal/mol, the unfolding free energy (Escherichia phage lambda, pH 8, 25 °C, Urea, Fluorescence, Potassium phosphate 0.1 M, reversible: yes) was 2.09 kcal/mol and 1 kcal/mol and the unfolding free energy (Escherichia phage lambda, pH 8, 37 °C, Urea, CD, Potassium phosphate 4 mM, NaCl 20 mM) was 0.86 kcal/mol. For the same protein, the Tm [9] was 57.2 °C, the “unfolding enthalpy (van 't Hoff)” value [9] was 68 kcal/mol and the Tm [10] was 53.4 °C and 51.5 °C. For the same protein, the “unfolding enthalpy (calorimetric)” value [10] was 65.5 kcal/mol and 65 kcal/mol, the “unfolding enthalpy (van 't Hoff)” value [10] was 69.3 kcal/mol and the Tm [11] was 53.9 °C. For the same protein, the “unfolding enthalpy (calorimetric)” value [11] was 53.4 kcal/mol and the “unfolding enthalpy (van 't Hoff)” value [11] was 79.8 kcal/mol.
